Reference: paper PMC11992040

Tests used:
[1] = target: SmT2 (HM), T4 foldon-trimerized SARS-CoV-2 spike ectodomain with high-mannose N-glycans (SARS-CoV-2 | bacteriophage T4) (UniProt P0DTC2); assay: SEC-MALS
[2] = target: SmT2 (CT), T4 foldon-trimerized SARS-CoV-2 spike ectodomain with complex-type N-glycans (SARS-CoV-2 | bacteriophage T4) (UniProt P0DTC2); assay: SEC-MALS
[3] = target: SmT1 (CT), resistin-trimerized SARS-CoV-2 spike ectodomain with complex-type N-glycans (SARS-CoV-2 | human) (UniProt P0DTC2); assay: SEC

Q: “SmT2 (HM), T4 foldon-trimerized SARS-CoV-2 spike ectodomain with high-mannose N-glycans (from UniProt P0DTC2 14-1208)” was tested. Which stoichiometry N [1] did it give?
A: The stoichiometry N was 3.

Q: With “SmT2 (CT), T4 foldon-trimerized SARS-CoV-2 spike ectodomain with complex-type N-glycans (from UniProt P0DTC2 14-1208)” as the substance, how does the stoichiometry N [2] read?
A: The stoichiometry N was 3.

Q: Which stoichiometry N [3] does the source give for “SmT1 (CT), resistin-trimerized SARS-CoV-2 spike ectodomain with complex-type N-glycans (from UniProt P0DTC2;Q9HD89-1)” here?
A: The stoichiometry N was 3.
